# Source: patent publication US20140242084A1 (published 2014)
# B1: claudin-5 of primary human microvascular endothelial cells (HMVECs) (other, UniProt O00501 1-218, looked up)
# chain: MGSAALEILGLVLCLVGWGGLILACGLPMWQVTAFLDHNIVTAQTTWKGLWMSCVVQSTGHMQCKVYDSVLALSTEVQAARALTVSAVLLAFVALFVTLAGAQCTTCVAPGPAKARVALTGGVLYLFCGLLALVPLCWFANIVVREFYDPSVPVSQKYELGAALYIGWAATALLMVGGCLLCCGAWVCTGRPDLSFPVKYSAPRRPTATGDYDKKNYV
# notes: whole, on cells; Endogenous protein, detected by in situ PLA and by co-immunoprecipitation
# B2: recombinant human cANGPTL4 (C-terminal region of angiopoietin-like 4) (ligand, UniProt Q9BY76 186-406, looked up)
# chain: RDCQELFQVGERQSGLFEIQPQGSPPFLVNCKMTSDGGWTVIQRRHDGSVDFNRPWEAYKAGFGDPHGEFWLGLEKVHSITGDRNSRLAVQLRDWDGNAELLQFSVHLGGEDTAYSLQLTAPVAGQLGATTVPPSGLSVPFSTWDQDHDLRRDKNCAKSLSGGWWFGTCSHSNLNGQYFRSIPQQRQKLKKGIFWKTWRGRYYPLQATTMLIQPMAAEAAS
# notes: domain: c terminal region; the tag is not specified; also called rh-cANGPTL4; rhcANGPTL4
# B3: junctional adhesion molecule A (JAM-A) (other, UniProt Q9Y624 28-238, looked up)
# chain: SVTVHSSEPEVRIPENNPVKLSCAYSGFSSPRVEWKFDQGDTTRLVCYNNKITASYEDRVTFLPTGITFKSVTREDTGTYTCMVSEEGGNSYGEVKVKLIVLVPPSKPTVNIPSSATIGNRAVLTCSEQDGSPPSEYTWFKDGIVMPTNPKSTRAFSNSSYVLNPTTGELVFDPLSASDTGEYSCEARNGYGTPMTSNAVRMEAVERNVGV
# B4: VE-cadherin EC3 (other, UniProt P33151 259-372, looked up)
# chain: TQTKYTFVVPEDTRVGTSVGSLFVEDPDEPQNRMTKYSILRGDYQDAFTIETNPAHNEGIIKPMKPLDYEYIQQYSFIVEATDPTIDLRYMSPPAGNRAQVIINITDVDEPPIF
# notes: domain: EC3
# How the values were obtained:
# [1] = biological target: B2; experiment: figure legend: kinetic PLA and co-immunoprecipitation in HMVECs
# Protocol: Values (means±S.D.) represent mean fold change in the number of interactions compared to the zero time point, as determined from n=3 independent experiments (600 HMVECs) using BlobFinder. […] Protein lysates were collected every 10 minutes (0-180 minutes). Values below each band represent the mean fold change in protein expression level compared with the cognate zero time point (n=3). *, P<0.05; **, P<0.01.
# [2] = biological target: B1; experiment: in situ proximity ligation assay on ECs, 250 cells
# [3] = biological target: T1, VE-cadherin of primary human microvascular endothelial cells (HMVECs) (human, UniProt P33151 48-784); experiment: in situ proximity ligation assay on ECs, 250 cells
# T1 construct: whole, on cells; Endogenous protein, detected by in situ PLA and by co-immunoprecipitation
# T1 sequence (looked up): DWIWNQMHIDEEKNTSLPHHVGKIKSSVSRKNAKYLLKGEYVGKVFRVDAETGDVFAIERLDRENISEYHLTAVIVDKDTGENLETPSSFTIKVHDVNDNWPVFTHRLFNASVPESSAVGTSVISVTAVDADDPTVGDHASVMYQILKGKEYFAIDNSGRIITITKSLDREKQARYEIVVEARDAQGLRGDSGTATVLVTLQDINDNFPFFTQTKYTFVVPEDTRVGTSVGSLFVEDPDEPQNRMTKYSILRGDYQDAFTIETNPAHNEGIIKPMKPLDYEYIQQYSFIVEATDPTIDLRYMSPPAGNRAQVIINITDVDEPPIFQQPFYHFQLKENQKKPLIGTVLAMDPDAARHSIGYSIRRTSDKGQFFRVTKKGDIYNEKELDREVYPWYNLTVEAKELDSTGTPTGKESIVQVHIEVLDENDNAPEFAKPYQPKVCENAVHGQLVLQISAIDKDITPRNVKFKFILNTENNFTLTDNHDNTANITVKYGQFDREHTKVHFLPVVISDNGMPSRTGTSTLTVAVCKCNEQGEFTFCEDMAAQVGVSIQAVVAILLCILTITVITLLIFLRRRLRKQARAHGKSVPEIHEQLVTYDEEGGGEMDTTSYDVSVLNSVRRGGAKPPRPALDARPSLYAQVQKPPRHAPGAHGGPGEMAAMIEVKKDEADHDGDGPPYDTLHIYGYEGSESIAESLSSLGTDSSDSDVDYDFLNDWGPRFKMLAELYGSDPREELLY
# [4] = biological target: T2, integrin α5β1 of primary human microvascular endothelial cells (HMVECs) (human, UniProt P08648 42-1049; P05556 21-798); experiment: in situ proximity ligation assay on ECs, 250 cells
# T2 construct: whole, on cells; Endogenous protein, detected by in situ PLA and by co-immunoprecipitation from HMVEC lysates
# T2 sequence (P08648 42-1049, chain 1 of 2): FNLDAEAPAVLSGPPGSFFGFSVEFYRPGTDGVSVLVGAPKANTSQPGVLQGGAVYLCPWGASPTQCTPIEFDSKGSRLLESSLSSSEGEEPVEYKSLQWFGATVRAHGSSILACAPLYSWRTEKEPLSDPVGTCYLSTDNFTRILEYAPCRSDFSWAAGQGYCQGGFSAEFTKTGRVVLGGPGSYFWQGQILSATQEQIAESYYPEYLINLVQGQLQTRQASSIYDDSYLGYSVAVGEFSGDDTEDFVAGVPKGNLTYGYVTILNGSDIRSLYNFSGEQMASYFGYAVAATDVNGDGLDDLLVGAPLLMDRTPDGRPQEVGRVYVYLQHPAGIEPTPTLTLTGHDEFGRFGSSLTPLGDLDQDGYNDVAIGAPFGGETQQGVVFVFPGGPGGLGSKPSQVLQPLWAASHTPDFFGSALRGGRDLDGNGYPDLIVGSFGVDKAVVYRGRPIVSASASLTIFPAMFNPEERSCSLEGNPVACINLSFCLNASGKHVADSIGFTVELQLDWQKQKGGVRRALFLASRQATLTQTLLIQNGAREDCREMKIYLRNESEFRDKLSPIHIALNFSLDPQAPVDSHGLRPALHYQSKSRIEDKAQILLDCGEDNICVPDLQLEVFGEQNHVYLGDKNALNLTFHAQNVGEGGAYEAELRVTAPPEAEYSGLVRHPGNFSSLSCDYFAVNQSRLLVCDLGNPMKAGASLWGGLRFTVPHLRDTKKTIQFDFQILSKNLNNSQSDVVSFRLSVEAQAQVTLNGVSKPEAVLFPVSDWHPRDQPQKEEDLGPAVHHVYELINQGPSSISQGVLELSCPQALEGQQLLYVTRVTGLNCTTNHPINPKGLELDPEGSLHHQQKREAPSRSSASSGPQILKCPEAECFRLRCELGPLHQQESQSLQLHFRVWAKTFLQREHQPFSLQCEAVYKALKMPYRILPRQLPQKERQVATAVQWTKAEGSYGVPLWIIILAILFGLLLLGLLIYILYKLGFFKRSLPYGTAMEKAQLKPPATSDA
# T2 sequence (P05556 21-798, chain 2 of 2): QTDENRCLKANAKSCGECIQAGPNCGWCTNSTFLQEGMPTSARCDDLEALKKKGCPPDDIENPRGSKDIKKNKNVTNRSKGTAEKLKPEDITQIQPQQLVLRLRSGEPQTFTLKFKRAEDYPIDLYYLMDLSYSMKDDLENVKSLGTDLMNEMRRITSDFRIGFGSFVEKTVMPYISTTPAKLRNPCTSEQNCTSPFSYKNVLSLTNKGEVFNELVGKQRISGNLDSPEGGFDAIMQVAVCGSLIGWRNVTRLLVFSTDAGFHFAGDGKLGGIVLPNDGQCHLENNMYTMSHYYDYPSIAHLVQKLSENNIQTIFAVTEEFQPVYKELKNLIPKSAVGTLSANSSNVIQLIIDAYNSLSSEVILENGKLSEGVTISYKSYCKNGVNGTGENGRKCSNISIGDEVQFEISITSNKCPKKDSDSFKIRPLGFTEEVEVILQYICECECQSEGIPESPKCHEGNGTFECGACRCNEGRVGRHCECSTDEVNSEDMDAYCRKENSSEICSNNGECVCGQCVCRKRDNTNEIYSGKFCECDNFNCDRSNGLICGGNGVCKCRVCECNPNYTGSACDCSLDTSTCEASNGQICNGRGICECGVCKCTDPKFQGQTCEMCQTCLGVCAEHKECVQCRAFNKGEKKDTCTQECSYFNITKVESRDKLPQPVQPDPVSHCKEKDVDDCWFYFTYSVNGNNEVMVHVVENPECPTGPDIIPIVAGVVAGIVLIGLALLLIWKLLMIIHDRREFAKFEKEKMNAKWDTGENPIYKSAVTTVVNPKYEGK
# [5] = biological target: B1; experiment: kinetic PLA in HMVECs in the presence of anti-integrin antibody, against the zero time point (FIG. 4C)
# Protocol: (§1) (A, B and D, E) Immunofluorescence staining for ZO-1 (A, D) and transendothelial electrical resistance (TER) measurement (B, E) in confluent HMVEC monolayer. […] Treatments were for 3 or 6 h. HMVECs were counterstained with DAPI (blue) for nuclei and phalloidin (red) for actin stress fibers. Scale bar: 40 μm. White arrows indicate endothelial junction lesions. Data (means±S.D.) from 3 independent experiments. *, P<0.05; **, P<0.01. […] Values (means±S.D.) represent mean fold change in the number of interactions compared to the zero time point, as determined from n=3 independent experiments (˜600 HMVECs) using BlobFinder.
# [6] = biological target: T1, VE-cadherin of primary human …; experiment: as above
# Protocol: as §1
# Tie2 = biological target: T3, Tie2 (human, UniProt Q02763 23-1124); experiment: co-immunoprecipitation with anti-cANGPTL4 from lysates of rh-cANGPTL4-treated HMVECs (FIG. 5B)
# T3 construct: whole, on cells
# junction protein JAM-C = biological target: T4, junction protein JAM-C (human, UniProt Q9BX67 32-310); experiment: as above
# T4 construct: whole, on cells
# T4 sequence (looked up): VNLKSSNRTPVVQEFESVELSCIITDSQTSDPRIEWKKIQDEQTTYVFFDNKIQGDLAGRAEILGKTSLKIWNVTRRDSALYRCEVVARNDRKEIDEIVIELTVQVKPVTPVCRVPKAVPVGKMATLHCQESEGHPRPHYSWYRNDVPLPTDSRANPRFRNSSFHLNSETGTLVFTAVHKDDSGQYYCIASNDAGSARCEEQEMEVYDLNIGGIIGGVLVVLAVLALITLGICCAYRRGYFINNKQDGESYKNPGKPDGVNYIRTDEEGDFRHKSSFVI
# Tie1 = biological target: T5, Tie1 (human, UniProt P35590 22-1138); experiment: as above
# T5 construct: whole, on cells
# T5 sequence (P35590 22-1138): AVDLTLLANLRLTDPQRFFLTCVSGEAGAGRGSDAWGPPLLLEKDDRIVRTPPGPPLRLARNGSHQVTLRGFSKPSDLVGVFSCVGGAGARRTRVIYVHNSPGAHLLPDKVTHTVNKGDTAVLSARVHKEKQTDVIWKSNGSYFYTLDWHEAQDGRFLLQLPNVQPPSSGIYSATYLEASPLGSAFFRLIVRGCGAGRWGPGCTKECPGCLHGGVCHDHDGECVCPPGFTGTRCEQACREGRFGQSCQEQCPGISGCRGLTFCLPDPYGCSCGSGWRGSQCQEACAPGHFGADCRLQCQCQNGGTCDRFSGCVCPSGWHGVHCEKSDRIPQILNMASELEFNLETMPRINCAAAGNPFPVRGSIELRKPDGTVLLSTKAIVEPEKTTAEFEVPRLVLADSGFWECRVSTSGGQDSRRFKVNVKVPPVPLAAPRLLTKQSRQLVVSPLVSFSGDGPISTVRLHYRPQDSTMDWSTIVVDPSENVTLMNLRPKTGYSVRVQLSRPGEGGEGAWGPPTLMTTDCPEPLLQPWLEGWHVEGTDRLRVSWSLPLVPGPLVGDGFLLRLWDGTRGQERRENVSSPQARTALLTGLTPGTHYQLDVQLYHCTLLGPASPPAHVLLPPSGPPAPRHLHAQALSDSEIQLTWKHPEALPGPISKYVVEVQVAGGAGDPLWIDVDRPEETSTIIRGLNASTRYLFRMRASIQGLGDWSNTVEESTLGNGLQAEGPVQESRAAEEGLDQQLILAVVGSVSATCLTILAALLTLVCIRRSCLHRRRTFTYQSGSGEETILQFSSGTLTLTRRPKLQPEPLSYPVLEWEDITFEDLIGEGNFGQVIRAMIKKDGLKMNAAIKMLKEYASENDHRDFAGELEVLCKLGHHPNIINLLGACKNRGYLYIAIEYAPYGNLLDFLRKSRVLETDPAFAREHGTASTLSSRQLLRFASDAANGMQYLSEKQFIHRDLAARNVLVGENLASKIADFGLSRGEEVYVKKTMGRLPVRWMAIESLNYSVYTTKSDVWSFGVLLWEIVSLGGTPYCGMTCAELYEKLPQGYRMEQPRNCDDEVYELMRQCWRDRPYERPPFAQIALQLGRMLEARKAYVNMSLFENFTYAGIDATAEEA
# integrin β3 of HMVECs = biological target: T6, integrin β3 of HMVECs (human, UniProt P05106 27-788); experiment: as above
# T6 construct: whole, on cells
# T6 sequence (P05106 27-788): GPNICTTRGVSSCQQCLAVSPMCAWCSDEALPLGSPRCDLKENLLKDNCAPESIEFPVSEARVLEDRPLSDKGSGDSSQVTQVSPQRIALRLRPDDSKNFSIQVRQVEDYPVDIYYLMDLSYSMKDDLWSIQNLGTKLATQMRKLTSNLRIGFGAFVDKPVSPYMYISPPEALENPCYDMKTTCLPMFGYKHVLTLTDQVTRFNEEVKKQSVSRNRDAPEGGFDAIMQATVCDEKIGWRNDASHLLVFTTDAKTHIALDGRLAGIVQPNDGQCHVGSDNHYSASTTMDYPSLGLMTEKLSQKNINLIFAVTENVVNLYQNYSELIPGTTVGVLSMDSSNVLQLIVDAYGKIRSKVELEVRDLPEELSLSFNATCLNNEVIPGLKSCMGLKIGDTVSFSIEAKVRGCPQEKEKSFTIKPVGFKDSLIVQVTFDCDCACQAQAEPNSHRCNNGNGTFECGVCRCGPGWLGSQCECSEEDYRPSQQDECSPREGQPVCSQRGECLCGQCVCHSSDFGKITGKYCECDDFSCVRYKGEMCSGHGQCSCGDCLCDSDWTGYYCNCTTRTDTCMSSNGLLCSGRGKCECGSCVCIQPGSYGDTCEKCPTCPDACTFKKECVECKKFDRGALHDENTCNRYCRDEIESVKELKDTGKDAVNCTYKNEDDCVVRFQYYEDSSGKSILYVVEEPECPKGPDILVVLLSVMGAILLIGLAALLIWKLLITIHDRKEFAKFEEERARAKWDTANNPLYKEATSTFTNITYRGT
# occludin = biological target: T7, occludin (UniProt Q16625 1-522, limits assumed); experiment: SPR, immobilised cANGPTL4
# T7 sequence (looked up): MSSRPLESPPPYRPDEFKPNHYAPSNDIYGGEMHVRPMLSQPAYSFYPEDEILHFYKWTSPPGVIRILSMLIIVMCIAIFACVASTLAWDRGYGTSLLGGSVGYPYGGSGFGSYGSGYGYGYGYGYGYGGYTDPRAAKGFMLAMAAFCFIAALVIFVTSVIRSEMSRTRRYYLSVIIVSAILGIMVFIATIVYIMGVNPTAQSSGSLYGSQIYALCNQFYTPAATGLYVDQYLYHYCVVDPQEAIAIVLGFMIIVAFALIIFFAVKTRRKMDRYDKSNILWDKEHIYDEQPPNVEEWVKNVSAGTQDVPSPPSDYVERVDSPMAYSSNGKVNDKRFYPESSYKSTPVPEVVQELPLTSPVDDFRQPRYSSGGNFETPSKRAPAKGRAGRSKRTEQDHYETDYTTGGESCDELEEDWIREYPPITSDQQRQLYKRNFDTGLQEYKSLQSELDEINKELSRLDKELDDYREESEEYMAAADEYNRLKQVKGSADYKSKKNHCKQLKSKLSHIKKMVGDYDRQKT
# Protocol: (§2) SPR was carried out as previously described17,18 using a BIAcore 2000 system (BIAcore, Uppsala, Sweden). Six concentrations (0.16, 0.32, 0.63, 1.25, 2.50 and 5.0 μM) of recombinant integrin β1, first extracellular domain of VE-cadherin (ECD1), extracellular repeat 1 domain of VE-cadherin (EC1), occludin or JAM-A were used. Integrin was expressed in Drosophila S2 cells17 and various extracellular domains of VE-cadherin and claudin-5 purchased from Abnova. Global fitting of the SPR data was performed as previously described to determine the KD. Preinjection or preincubation with the indicated antibodies or preimmune IgG was performed to determine specific interactions. Each sensorgram was corrected by subtracting a sensorgram obtained from a reference flow cell with no immobilized protein. […] Values are mean±S.D. (n=3)
# [7] = biological target: integrin β3 (control of the interaction analysis in paragraph 126) (UniProt P05106 27-718, limits assumed); experiment: SPR control (sentence also cites references 16, 17)
# Sequence of integrin β3 (control of the interaction analysis in paragraph 126) (P05106 27-718 limits assumed): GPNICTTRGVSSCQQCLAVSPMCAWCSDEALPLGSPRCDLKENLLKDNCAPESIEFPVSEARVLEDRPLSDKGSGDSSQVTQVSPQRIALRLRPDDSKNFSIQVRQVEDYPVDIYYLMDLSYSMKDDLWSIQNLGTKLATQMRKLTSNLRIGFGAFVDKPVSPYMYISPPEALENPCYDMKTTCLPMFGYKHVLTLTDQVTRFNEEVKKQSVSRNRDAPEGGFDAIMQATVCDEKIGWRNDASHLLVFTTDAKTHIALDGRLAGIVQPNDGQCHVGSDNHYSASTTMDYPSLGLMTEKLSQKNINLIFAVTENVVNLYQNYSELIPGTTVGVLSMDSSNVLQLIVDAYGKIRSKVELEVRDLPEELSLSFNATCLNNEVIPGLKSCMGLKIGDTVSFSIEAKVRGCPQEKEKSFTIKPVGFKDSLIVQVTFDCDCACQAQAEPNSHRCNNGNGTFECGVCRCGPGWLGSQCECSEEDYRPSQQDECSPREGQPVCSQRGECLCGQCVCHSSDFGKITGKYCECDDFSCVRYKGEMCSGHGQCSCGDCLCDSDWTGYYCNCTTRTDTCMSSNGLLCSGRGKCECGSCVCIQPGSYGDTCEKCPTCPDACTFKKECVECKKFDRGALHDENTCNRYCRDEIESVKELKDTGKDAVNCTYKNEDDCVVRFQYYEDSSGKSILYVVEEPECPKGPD
# [8] = biological target: T8, VE-cadherin (SPR analyte) (UniProt P33151 48-599, limits assumed); experiment: SPR (BIAcore 2000), immobilised cANGPTL4, global fit
# T8 sequence (looked up): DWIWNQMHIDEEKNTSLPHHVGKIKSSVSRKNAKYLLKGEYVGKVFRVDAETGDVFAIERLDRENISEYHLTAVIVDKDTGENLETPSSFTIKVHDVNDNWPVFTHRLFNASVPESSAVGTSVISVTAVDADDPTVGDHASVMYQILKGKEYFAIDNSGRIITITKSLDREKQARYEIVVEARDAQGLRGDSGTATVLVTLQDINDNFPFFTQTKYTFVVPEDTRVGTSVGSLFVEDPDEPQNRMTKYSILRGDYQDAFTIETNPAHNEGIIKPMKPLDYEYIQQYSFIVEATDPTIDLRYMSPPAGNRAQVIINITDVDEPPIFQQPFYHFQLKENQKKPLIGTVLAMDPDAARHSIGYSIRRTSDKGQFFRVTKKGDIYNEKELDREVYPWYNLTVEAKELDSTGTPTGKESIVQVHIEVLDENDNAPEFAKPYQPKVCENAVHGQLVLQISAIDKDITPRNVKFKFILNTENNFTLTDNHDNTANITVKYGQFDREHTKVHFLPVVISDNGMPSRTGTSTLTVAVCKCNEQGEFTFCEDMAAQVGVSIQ
# Protocol: as §2
# claudin-5 (SPR analyte) = claudin-5 (SPR analyte) (UniProt O00501); experiment: as above
# [9] = biological target: recombinant integrin α5β1 (UniProt P08648); experiment: as above
# [10] = biological target: B2; experiment: SPR, immobilised cANGPTL4
# Protocol: as §2
# [11] = biological target: B2; experiment: SPR, immobilised cANGPTL4 (FIG. 2B)
# Protocol: as §2
binder,measurement,setting,value
B1,binding result,[1],binds
B2,PLA spots/cell,[2],12.3 PLA spots/cell
same,PLA spots/cell,[3],16.4 PLA spots/cell
same,PLA spots/cell,[4],22.5 PLA spots/cell
same,mean fold change in the interactions,[5],0.4 fold
same,mean fold change in the interactions,[6],0.4 fold
same,binding result,Tie2,no binding
same,binding result,junction protein JAM-C,no binding
same,binding result,Tie1,no binding
same,binding result,integrin β3 of HMVECs,no binding
same,binding result,occludin,no binding (tested: 0.16-5.0 µM)
same,binding result,[7],no binding
same,Kd,[8],112 nM
same,Kd,claudin-5 (SPR analyte),58.7 nM
same,Kd,[9],12.6 nM
B3,binding result,[10],no binding (tested: 0.16-5.0 µM)
B4,binding result,[11],no binding
